The results in this text go back to patent US20110312881A1 (AMUNIX, published 2011).

The target of the experiment is T1, XTEN_AM875-hGH (human, UniProt P01241 27-217).
T1 construct: Negative control in the IL-1 receptor ELISA
Nature of the experiment: ELISA, plate-coated mouse IL-1R/Fc. On the procedure: To evaluate the activity of the IL-1ra-containing XTEN fusion proteins, an ELISA based receptor binding assay was used. Here the wells of a Costar 3690 assay plate were coated overnight with 50 ng per well of mouse IL-1 receptor fused to Fc domain of human IgG (IL-1R/Fc, R&D Systems). Subsequently the wells were blocked with 3% BSA to prevent nonspecific interactions with the solid phase. After thoroughly washing the wells, a dilution series of either IL-1ra-XTEN_AM875, XTEN_AM875-IL-1ra, or IL-1ra (anakinra) was applied to the wells. The binding reaction was allowed to proceed for 2 hr at room temperature. Unbound Il-1ra was removed by repeated washing. The bound IL-1ra ad IL-1ra-XTEn fusions were detected with a biotinylated anti-human II-1ra antibody and a horseradish peroxidase-conjugated streptavidin. […] The absorbance of each well at 450 nm and 570 nm was recorded on a SpectrMax 384Plus spectrophotometer. The corrected absorbance signal (Abscorr=Abs₄₅₀ₙₘ−Abs₅₇₀ₙₘ) was plotted as a function of IL-1ra-XTEN or IL-1ra concentration to produce a binding isotherm as shown in FIG. 17.
To estimate the binding affinity of each fusion protein for the IL-1 receptor, the binding data was fit to a sigmoidal dose-response curve. From the fit of the data an EC50 (the concentration of IL-1ra or IL-1ra-XTEN at which the signal is half maximal) for each construct was determined.

T1 sequence (P01241 other isoform, or with tags, fused parts or gaps limits assumed): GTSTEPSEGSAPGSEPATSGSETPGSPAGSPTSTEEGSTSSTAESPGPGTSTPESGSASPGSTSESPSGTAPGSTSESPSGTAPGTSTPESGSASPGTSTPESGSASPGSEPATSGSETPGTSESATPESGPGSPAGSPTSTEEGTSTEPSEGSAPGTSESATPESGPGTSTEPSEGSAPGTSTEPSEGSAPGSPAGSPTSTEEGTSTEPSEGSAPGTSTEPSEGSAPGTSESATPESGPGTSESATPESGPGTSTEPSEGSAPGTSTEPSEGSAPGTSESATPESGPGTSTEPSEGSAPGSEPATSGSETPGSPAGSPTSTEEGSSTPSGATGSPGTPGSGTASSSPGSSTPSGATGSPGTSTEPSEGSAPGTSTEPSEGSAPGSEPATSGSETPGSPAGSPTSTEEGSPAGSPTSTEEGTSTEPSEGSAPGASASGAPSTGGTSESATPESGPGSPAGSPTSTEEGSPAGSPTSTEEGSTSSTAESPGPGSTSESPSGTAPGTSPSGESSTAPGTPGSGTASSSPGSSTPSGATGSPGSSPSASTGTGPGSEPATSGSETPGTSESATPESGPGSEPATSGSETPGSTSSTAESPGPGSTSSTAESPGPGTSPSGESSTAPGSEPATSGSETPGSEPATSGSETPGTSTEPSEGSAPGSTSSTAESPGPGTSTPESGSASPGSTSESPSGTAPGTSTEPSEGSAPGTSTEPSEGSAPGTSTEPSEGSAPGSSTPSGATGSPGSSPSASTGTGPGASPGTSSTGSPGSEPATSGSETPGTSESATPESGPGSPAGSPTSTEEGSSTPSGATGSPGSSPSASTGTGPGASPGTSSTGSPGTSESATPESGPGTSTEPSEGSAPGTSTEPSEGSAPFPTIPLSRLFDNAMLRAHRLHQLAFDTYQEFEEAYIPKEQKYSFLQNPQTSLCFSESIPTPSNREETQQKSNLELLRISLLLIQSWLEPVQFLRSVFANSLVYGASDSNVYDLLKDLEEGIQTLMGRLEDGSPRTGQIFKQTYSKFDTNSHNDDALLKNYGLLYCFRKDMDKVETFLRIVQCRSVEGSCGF

B1: mouse IL-1 receptor fused to Fc domain of human IgG (IL-1R/Fc, R&D Systems) (Fc fusion, UniProt P13504 20-338, looked up)
chain: LEIDVCTEYPNQIVLFLSVNEIDIRKCPLTPNKMHGDTIIWYKNDSKTPISADRDSRIHQQNEHLWFVPAKVEDSGYYYCIVRNSTYCLKTKVTVTVLENDPGLCYSTQATFPQRLHIAGDGSLVCPYVSYFKDENNELPEVQWYKNCKPLLLDNVSFFGVKDKLLVRNVAEEHRGDYICRMSYTFRGKQYPVTRVIQFITIDENKRDRPVILSPRNETIEADPGSMIQLICNVTGQFSDLVYWKWNGSEIEWNDPFLAEDYQFVEHPSTKRKYTLITTLNISEVKSQFYRYPFICVVKNTNIFESAHVQLIYPVPDFK
notes: Bought reagent, coated on the plate at 50 ng per well; not shown: Fc domain of human IgG
Regarding B1, the binding result is listed as “no binding”.
